Measured values from publication PMC2196876.

Molecular target: epitope-tagged full-length hVam6p (HA–hVam6p and Myc–hVam6p) (human)
Assay: sucrose gradient sedimentation velocity with immunoprecipitation of fractions

- stoichiometry N: 3
Substance: epitope-tagged full-length hVam6p (HA–hVam6p and Myc–hVam6p) (natural protein)
